Source: the supplement of paper PMC9170038

Test system: MS2 coat protein
Experiment: apparent KD of MS2 coat protein; designed switch direction (-1 OFF switch, 1 ON switch): -1; higher = weaker reporter binding
Method in brief: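 On Illumina chips, designed RNA switches with common flanks were made by stalled E. coli RNA polymerase. Titrations with SNAP-549-labelled MS2 coat protein, doubling from 0.7 or 1.5 nM to 3 µM, were done with no input, with 200 uM small-molecule ligand, or with an oligonucleotide input. Apparent KD is the median per design over clusters, from curve fits of normalised cluster fluorescence.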

[1] = Eterna round: R95, input ligand: microRNA oligo, concentration not stated
[2] = input ligand: microRNA oligo, concentration not stated
[3] = Eterna round: R95, input ligand: FMN 200 uM
[4] = Eterna round: R95, input ligand: none

Sequence	apparent KD of MS2 coat protein [1] [nM]	apparent KD of MS2 coat protein (input ligand: FMN 200 uM) [nM]	apparent KD of MS2 coat protein [2] [nM]	apparent KD of MS2 coat protein (input ligand: none) [nM]	apparent KD of MS2 coat protein [3] [nM]	apparent KD of MS2 coat protein [4] [nM]
AUAUAGUCAGGAUAUCGAAGUGAGUGUUGGUGGGUAAGGUACGAGAAGGGACAUGAGGAUCACCCAUGUAGGAA [JR_Exclusion4)Sub004] (puzzle: Exclusion 4)	48					
CUCGUGCAGCUUUGCUGUACGAGUACAUGAGGAUCACCCAUGUAGGAUAUGGUACGCAAAGCGUGCCAGAAGGACGUGCGUUAG [Mat - Exclusion NG 3 - Mod of JL - D93] (Eterna round: R96, puzzle: Exclusion NG 3)		78.7	29.9	33.1		
UAUUAUCAAGCUUGAUCCCACAUGAGGAUCACCCAUGUGCUCGUCUUAUUUCUGUCCUUAUUGUUCUCUCGUCUAAU [JR_STOV1_v2_Sub097] (Eterna round: R97, puzzle: Sensor, turn-off variant 1)		80.2		94.1		
GGCAUAAUGUAGGAUAUCGUAAUGGAAACAUUACGAGAAGGGCAAACAUGAGGAUCACCCAUGUUCCUUAAGCC [Mat - Exclusion 6 - Eli Mod - D70] (puzzle: Exclusion 6)	14.2				18.7	15.4
AGCAGACGAGGAUAUGAUUAAUAAUACAUGAGGAUCACCCAUGUAAUACUGAUCUAUGGAUCAGAAGGCGUCUGCU [E5/6-A2] (Eterna round: R97, puzzle: Exclusion 5)		12		16.6		
UAUGUGUCAGGAUAUUAAUUAUAACAGAAUUUAACAAUGAUUAAGAAGGGACAUGAGGAUCACCCAUGUUCAUC [JR_Ex4_Sub024] (Eterna round: R97, puzzle: Exclusion 4)		22.7		20.4		
UUUACAAGCUAUUGAUCCCACAUGAGGAUCACCCAUGUUGCUGCCGUGAGGUAGCUUUUAACAAUUGCUCGUCUUAU [JL TOV1 3.38] (Eterna round: R97, puzzle: Sensor, turn-off variant 1)		424		570		
UCUAAACAUGAGGAUCACCCAUGUGAGGAUAUGAUGCAGCAGUGGUCUACGCUGUGCAUCAGAAGGCGCAUGUG (puzzle: Exclusion 1)	72.2				148	80.4
ACAAAGCGAGGAUAUACACAGGUGUCCUGGGCGUCAAAUCGACAUGAGGAUCACCCAUGUAGAAGGCGCAAUAG [Diedated] (Eterna round: R97, puzzle: Exclusion 2)		44.9		36.9		
CCUCCACAUGAGGAUCACCCAUGUCAGGAUAUCGUGUGUGCUUUUUCGGUCUUUCGUGCGAGAAGGGACGUCUG (puzzle: Exclusion 1)	25.5					
UUUUACAAGCCAGAUCCUCACAUGAGGAUCACCCAUGUGCUCGUCUGUUUUCGCACUAUCACGUUUGUGAUAGUGCU [Level Boss var2-10] (puzzle: Sensor v3, turn-off variant 1)	12.9				162	288
ACAUGAGGAUCACCCAUGUUCGGCUGGUCCGUUUCGGCUGUCGAGGAUAUAGUUCGGUGUCCGCGCUAGAAGGCGGGAGCCGGC [Aenatbe mod 63] (Eterna round: R96, puzzle: Exclusion NG 3)		153	54.5	78.5		
GCAGCAACUCUAAUCAACCAAACAUGAGGAUCACCCAUGUCUCAGGAUAUGGUCUGGAUUACAGGCCAGAAGGGAGAAAGCUGC [Eli exng3 - 044] (Eterna round: R96, puzzle: Exclusion NG 3)		9	9.77	13.4		
CGCAUGUGAGGAUAUUAGUAGUAGUCAGAAUAGACUAUUACUGAGAAGGUACAUGAGGAUCACCCAUGUAUGCG [Eli x4 4.22] (Eterna round: R97, puzzle: Exclusion 4)		38.9		21.5		
UUCAUGUGAGGAUAUAGUACUCUUUCUAUUAUUUUUGAGUAUUAGAAGGCACAUGAGGAUCACCCAUGUAGUAC [Ex4 - 3 - 42] (puzzle: Exclusion 4)	40.8					
CGUGCGUAUGUGAGGAUAUGCUGGUCCUUGGAUCGGCAGAAGGCACAUGAGGAUCACCCAUGUGGUGUCGUACG [salish99_Bmod_ex4_080] (puzzle: Brourd's mod of Exclusion 4)	374					
CUUUAGUGAGGAUAUUAGUAGUAAUACAAUAGUAUUACUACUGAGAAGGCACAUGAGGAUCACCCAUGUUCCUC [Mat - Exclusion 4 - Mod of Omei - D79] (puzzle: Exclusion 4)	28					
AGAGUGCUGCGAGGAUAUACAUGAGGAUCACCCAUGUAAAAGUGUGAGGCUUUGCCUCACACUAUGUAGAAGGCGCAGUACUCA [Mat - Exclusion NG 2 - Mod of JL - D10] (Eterna round: R96, puzzle: Exclusion NG 2)		17.6	9.4	13.4		
UAGAUGUGAGGAUAUGGUAAAGAUAAGAUGAUGAAAGAACUCCAGAAGGCACAUGAGGAUCACCCAUGUAGAUG [JL-ex4-2.15 Jieux mod] (puzzle: Exclusion 4)	22.3				78.1	26
CCUCAUAUUUAGGAUAUGAUUGGUAAUUAUUAGUUAGAAGGAGAUACAUGAGGAUCACCCAUGUAAUAUUUAAA [-11.7, -11.3 kcal, 36% A] (Eterna round: R97, puzzle: Exclusion 6)		20.3		19.5		
UUGUUGUAUGUAGGAUAUGCGUAUUGUUAUUAUGCAGAAGGACAUGAGGAUCACCCAUGUAUAUUAUUAUUAUAUAUUAUAUAU [Title] (Eterna round: R96, puzzle: Exclusion NG 1)			20.1			
UUAUUAUGUGUAGGAUAUGCAUAUUAUUAUUAUGCAGAAGGACAUGAGGAUCACCCAUGUAUAUUAUUAUUAUAUAUUAUAUAU [Title] (Eterna round: R96, puzzle: Exclusion NG 1)			25.1			
UCAGGCUAUUAAACCGCCGACAUGAGGAUCACCCAUGUACUUCAUGCGCUAGCUUGCUCGUCUACCUCAAGGAUCCG [Eternabot (L2) Solution 24] (Eterna round: R97, puzzle: Sensor, turn-off variant 1)		67.7		68.6		
GAUCCACAUGAGGAUCACCCAUGUGAGGAUAUGAUACUAUGUACUUCGGUACAUAGUAUCAGAAGGCAUAUGAA [Ex1-3: 47] (Eterna round: R96, puzzle: Exclusion 1)		199	33.2	41.7		
AGCUGUGGCCGAGGAUAUAUACAUGAGGAUCACCCAUGUAGGUGCGGAUACUCGCACCAAUAAGUGUAGAAGGCGGUCUCAGCA [Eli eng2 - 058] (Eterna round: R96, puzzle: Exclusion NG 2)		10.7	13.1	13.3		
GUGAGGGAGUGAGGAUAUCAGGGAGGUGGGAAAUGAGAAGGUACAUGAGGAUCACCCAUGUAAGAGUAGGGAAGAGAGAAGAGU [Default title] (Eterna round: R96, puzzle: Exclusion NG 1)		78.7	109	83.8		
